From patent US20140127174A1 (ZEALAND PHARMA A S, published 2014) come the findings set out here.

Test [1] addresses human glucagon-like peptide 1 receptor (GLP-1-R) (human, UniProt P43220 24-463). Description: cell-based or functional assay.
Test [2] deals with human glucagon receptor (Glucagon-R) (human, UniProt P47871 26-477). Nature of the test: cell-based or functional assay.

human glucagon-like peptide 1 receptor (GLP-1-R), sequence (P43220 24-463): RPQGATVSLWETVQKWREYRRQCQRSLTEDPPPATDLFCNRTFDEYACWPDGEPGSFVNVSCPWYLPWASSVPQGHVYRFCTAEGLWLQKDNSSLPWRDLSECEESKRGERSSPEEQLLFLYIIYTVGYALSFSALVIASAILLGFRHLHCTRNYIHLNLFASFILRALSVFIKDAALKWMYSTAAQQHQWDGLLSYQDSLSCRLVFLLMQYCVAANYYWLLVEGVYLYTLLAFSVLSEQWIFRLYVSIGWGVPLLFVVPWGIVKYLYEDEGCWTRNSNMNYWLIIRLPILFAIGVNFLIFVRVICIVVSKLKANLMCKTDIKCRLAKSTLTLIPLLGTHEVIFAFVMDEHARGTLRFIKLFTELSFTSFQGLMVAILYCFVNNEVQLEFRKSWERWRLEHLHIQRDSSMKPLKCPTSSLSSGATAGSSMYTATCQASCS

B1: L006-0050 (SEQ ID NO: 12) (peptide)
peptide: H-HSQGTFTSDYSLYLDSRRAKDFIEWLERA-NH2
modifications: not fully specified
Turning to B1, the “EC50 of cAMP formation in HEK293 cells expressing human GLP-1-R (corrected to a purity of 50%)” value in test [1] is 0.17 nM. Besides, in test [2], the “EC50 of cAMP formation in HEK293 cells expressing human Glucagon-R (corrected to a purity of 50%)” value was 0.1 nM.
